Data: publication PMC9958131 (Nature Communications, 2023)

B1: Complement factor H-related protein 5 (protein, UniProt Q9BXR6 19-569, looked up)
Complement factor H-related …: EGTLCDFPKIHHGFLYDEEDYNPFSQVPTGEVFYYSCEYNFVSPSKSFWTRITCTEEGWSPTPKCLRMCSFPFVKNGHSESSGLIHLEGDTVQIICNTGYSLQNNEKNISCVERGWSTPPICSFTKGECHVPILEANVDAQPKKESYKVGDVLKFSCRKNLIRVGSDSVQCYQFGWSPNFPTCKGQVRSCGPPPQLSNGEVKEIRKEEYGHNEVVEYDCNPNFIINGPKKIQCVDGEWTTLPTCVEQVKTCGYIPELEYGYVQPSVPPYQHGVSVEVNCRNEYAMIGNNMITCINGIWTELPMCVATHQLKRCKIAGVNIKTLLKLSGKEFNHNSRIRYRCSDIFRYRHSVCINGKWNPEVDCTEKREQFCPPPPQIPNAQNMTTTVNYQDGEKVAVLCKENYLLPEAKEIVCKDGRWQSLPRCVESTAYCGPPPSINNGDTTSFPLSVYPPGSTVTYRCQSFYKLQGSVTVTCRNKQWSEPPRCLDPCVVSEENMNKNNIQLKWRNDGKLYAKTGDAVEFQCKFPHKAMISSPPFRAICQEGKFEYPICE
B2: Keratin, type II cuticular Hb5 (protein, UniProt P78386 1-507, looked up)
Keratin, type II cuticular Hb5: MSCRSYRISSGCGVTRNFSSCSAVAPKTGNRCCISAAPYRGVSCYRGLTGFGSRSLCNLGSCGPRIAVGGFRAGSCGRSFGYRSGGVCGPSPPCITTVSVNESLLTPLNLEIDPNAQCVKQEEKEQIKSLNSRFAAFIDKVRFLEQQNKLLETKWQFYQNQRCCESNLEPLFSGYIETLRREAECVEADSGRLASELNHVQEVLEGYKKKYEEEVALRATAENEFVVLKKDVDCAYLRKSDLEANVEALVEESSFLRRLYEEEIRVLQAHISDTSVIVKMDNSRDLNMDCIIAEIKAQYDDVASRSRAEAESWYRSKCEEMKATVIRHGETLRRTKEEINELNRMIQRLTAEIENAKCQRAKLEAAVAEAEQQGEAALSDARCKLAELEGALQKAKQDMACLLKEYQEVMNSKLGLDIEIATYRRLLEGEEHRLCEGVGSVNVCVSSSRGGVSCGGLSYSTTPGRQITSGPSAIGGSITVVAPDSCAPCQPRSSSFSCGSSRSVRFA
B3: Galectin-3-binding protein (protein, UniProt Q08380 19-585, looked up)
Galectin-3-binding protein: VNDGDMRLADGGATNQGRVEIFYRGQWGTVCDNLWDLTDASVVCRALGFENATQALGRAAFGQGSGPIMLDEVQCTGTEASLADCKSLGWLKSNCRHERDAGVVCTNETRSTHTLDLSRELSEALGQIFDSQRGCDLSISVNVQGEDALGFCGHTVILTANLEAQALWKEPGSNVTMSVDAECVPMVRDLLRYFYSRRIDITLSSVKCFHKLASAYGARQLQGYCASLFAILLPQDPSFQMPLDLYAYAVATGDALLEKLCLQFLAWNFEALTQAEAWPSVPTDLLQLLLPRSDLAVPSELALLKAVDTWSWGERASHEEVEGLVEKIRFPMMLPEELFELQFNLSLYWSHEALFQKKTLQALEFHTVPFQLLARYKGLNLTEDTYKPRIYTSPTWSAFVTDSSWSARKSQLVYQSRRGPLVKYSSDYFQAPSDYRYYPYQSFQTPQHPSFLFQDKRVSWSLVYLPTIQSCWNYGFSCSSDELPVLGLTKSGGSDRTIAYENKALMLCEGLFVADVTDFEGWKAAIPSALDTNSSKSTSSFPCPAGHFNGFRTVIRPFYLTNSSGVD
B4: Carboxypeptidase N subunit 2 (protein, UniProt P22792 22-545, looked up)
Carboxypeptidase N subunit 2: CPMGCDCFVQEVFCSDEELATVPLDIPPYTKNIIFVETSFTTLETRAFGSNPNLTKVVFLNTQLCQFRPDAFGGLPRLEDLEVTGSSFLNLSTNIFSNLTSLGKLTLNFNMLEALPEGLFQHLAALESLHLQGNQLQALPRRLFQPLTHLKTLNLAQNLLAQLPEELFHPLTSLQTLKLSNNALSGLPQGVFGKLGSLQELFLDSNNISELPPQVFSQLFCLERLWLQRNAITHLPLSIFASLGNLTFLSLQWNMLRVLPAGLFAHTPCLVGLSLTHNQLETVAEGTFAHLSNLRSLMLSYNAITHLPAGIFRDLEELVKLYLGSNNLTALHPALFQNLSKLELLSLSKNQLTTLPEGIFDTNYNLFNLALHGNPWQCDCHLAYLFNWLQQYTDRLLNIQTYCAGPAYLKGQVVPALNEKQLVCPVTRDHLGFQVTWPDESKAGGSWDLAVQERAARSQCTYSNPEGTVVLACDQAQCRWLNVQLSPQQGSLGLQYNASQEWDLRSSCGSLRLTVSIEARAAGP
B5: Keratin, type II cuticular Hb6 (protein, UniProt O43790 1-486, looked up)
Keratin, type II cuticular Hb6: MTCGSYCGGRAFSCISACGPRPGRCCITAAPYRGISCYRGLTGGFGSHSVCGGFRAGSCGRSFGYRSGGVCGPSPPCITTVSVNESLLTPLNLEIDPNAQCVKQEEKEQIKSLNSRFAAFIDKVRFLEQQNKLLETKLQFYQNRECCQSNLEPLFEGYIETLRREAECVEADSGRLASELNHVQEVLEGYKKKYEEEVSLRATAENEFVALKKDVDCAYLRKSDLEANVEALIQEIDFLRRLYEEEIRVLQSHISDTSVVVKLDNSRDLNMDCIIAEIKAQYDDIVTRSRAEAESWYRSKCEEMKATVIRHGETLRRTKEEINELNRMIQRLTAEVENAKCQNSKLEAAVAQSEQQGEAALSDARCKLAELEGALQKAKQDMACLIREYQEVMNSKLGLDIEIATYRRLLEGEEQRLCEGVGSVNVCVSSSRGGVVCGDLCASTTAPVVSTRVSSVPSNSNVVVGTTNACAPSARVGVCGGSCKRC
B6: Kininogen-1 (protein, UniProt P01042 19-644, looked up)
Kininogen-1: QESQSEEIDCNDKDLFKAVDAALKKYNSQNQSNNQFVLYRITEATKTVGSDTFYSFKYEIKEGDCPVQSGKTWQDCEYKDAAKAATGECTATVGKRSSTKFSVATQTCQITPAEGPVVTAQYDCLGCVHPISTQSPDLEPILRHGIQYFNNNTQHSSLFMLNEVKRAQRQVVAGLNFRITYSIVQTNCSKENFLFLTPDCKSLWNGDTGECTDNAYIDIQLRIASFSQNCDIYPGKDFVQPPTKICVGCPRDIPTNSPELEETLTHTITKLNAENNATFYFKIDNVKKARVQVVAGKKYFIDFVARETTCSKESNEELTESCETKKLGQSLDCNAEVYVVPWEKKIYPTVNCQPLGMISLMKRPPGFSPFRSSRIGEIKEETTVSPPHTSMAPAQDEERDSGKEQGHTRRHDWGHEKQRKHNLGHGHKHERDQGHGHQRGHGLGHGHEQQHGLGHGHKFKLDDDLEHQGGHVLDHGHKHKHGHGHGKHKNKGKKNGKHNGWKTEHLASSSEDSTTPSAQTQEKTEGPTPIPSLAKPGVTVTFSDFQDSDLIATMMPPISPAPIQSDDDWIPDIQIDPNGLSFNPISDFPDTTSPKCPGRPWKSVSEINPTTQMKESYYFDLTDGLS
B7: Angiotensinogen (protein, UniProt P01019 25-476, looked up)
Angiotensinogen: DRVYIHPFHLVIHNESTCEQLAKANAGKPKDPTFIPAPIQAKTSPVDEKALQDQLVLVAAKLDTEDKLRAAMVGMLANFLGFRIYGMHSELWGVVHGATVLSPTAVFGTLASLYLGALDHTADRLQAILGVPWKDKNCTSRLDAHKVLSALQAVQGLLVAQGRADSQAQLLLSTVVGVFTAPGLHLKQPFVQGLALYTPVVLPRSLDFTELDVAAEKIDRFMQAVTGWKTGCSLMGASVDSTLAFNTYVHFQGKMKGFSLLAEPQEFWVDNSTSVSVPMLSGMGTFQHWSDIQDNFSVTQVPFTESACLLLIQPHYASDLDKVEGLTFQQNSLNWMKKLSPRTIHLTMPQLVLQGSYDLQDLLAQAELPAILHTELNLQKLSNDRIRVGEVLNSIFFELEADEREPTESTQQLNKPEVLEVTLNRPFLFAVYDQSATALHFLGRVANPLSTA

system: recombinant human PAD2 and PAD4; assay: Citrullination site mapping by trypsin digestion and mass spectrometry; protein-level modifications over native, PAD2- and PAD4-citrullinated samples combined; format: biochemical; details: trypsin digest, Sequest HT search; co-identified proteins in the fibrinogen and vimentin samples (native, PAD2-cit, PAD4-cit); not split by sample or enzyme
Excerpt: Description: Raw mass spectrometry data for proteolytic mapping of fibrinogen, vimentin, and hnRNP A2/B1 by cathepsins B, S, and H (sheets 1-6); citrullination site mapping of fibrinogen and vimentin by trypsin digestion (sheets 7-8); and the natural antigen processing assay with native, PAD2-citrullinated (PAD2-cit), and PAD4-citrullinated (PAD4-cit) fibrinogen (sheets 9-11).

| Molecule | Modifications (Deamidated [R...] = citrullinated arginine positions found) |
| --- | --- |
| B1 | Deamidated [R69] |
| B2 | Deamidated [R142] |
| B3 | Deamidated [R63; R426; R435; R436; R570] |
| B4 | Deamidated [R89; R449] |
| B5 | Deamidated [R125] |
| B6 | Deamidated [R269; R389; R392] |
| B7 | Deamidated [R237] |
